For assay [1], the target named is mannosylated surface IgM (sIgM-Mann) of the FL-derived cell line WSU-FSCCL (human (endogenous in WSU-FSCCL)) (UniProt P01871).
Assay [2] deals with DC-SIGN-HA (DC-SIGN fused to the HA epitope tag) (UniProt Q9NNX6). Kind of assay: SEC; analytical gel filtration of recombinant DC-SIGN-Fc and DC-SIGN-HA; data not shown; the high Stokes radius prevented a more accurate measurement of molecular mass. On the technique in general: SEC sorts molecules by how far they enter the pores of the column.
Assay [3] concerns the target mannosylated surface IgM (sIgM-Mann) of the FL-derived cell line WSU-FSCCL (human (endogenous in WSU-FSCCL)) (UniProt P01871). This is another data set of the same source.
The target of assay [4] is T1, DC-SIGN-Fc (recombinant DC-SIGN fused to Fc), Q9NNX6.
T1 chain: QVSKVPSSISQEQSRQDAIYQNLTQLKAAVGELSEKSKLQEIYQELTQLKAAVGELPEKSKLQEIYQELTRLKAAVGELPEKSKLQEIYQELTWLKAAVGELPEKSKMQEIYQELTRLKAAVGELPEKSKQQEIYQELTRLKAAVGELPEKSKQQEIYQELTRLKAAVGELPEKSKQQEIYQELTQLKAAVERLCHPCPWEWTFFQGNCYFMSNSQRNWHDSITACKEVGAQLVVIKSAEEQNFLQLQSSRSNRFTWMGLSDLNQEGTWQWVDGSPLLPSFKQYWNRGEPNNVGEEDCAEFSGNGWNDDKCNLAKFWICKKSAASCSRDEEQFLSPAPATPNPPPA
Kind of assay: SEC; analytical gel filtration of recombinant DC-SIGN-Fc and DC-SIGN-HA; data not shown; the high Stokes radius prevented a more accurate measurement of molecular mass. The conditions noted are these: remark: other sources report otherwise.

This is an account of results in publication PMC8175722.

One may read the stoichiometry N as a count of units in the complex or per binding partner.

Chain of UniProt P01871 (P01871 whole entry, looked up, the tested form may be a part): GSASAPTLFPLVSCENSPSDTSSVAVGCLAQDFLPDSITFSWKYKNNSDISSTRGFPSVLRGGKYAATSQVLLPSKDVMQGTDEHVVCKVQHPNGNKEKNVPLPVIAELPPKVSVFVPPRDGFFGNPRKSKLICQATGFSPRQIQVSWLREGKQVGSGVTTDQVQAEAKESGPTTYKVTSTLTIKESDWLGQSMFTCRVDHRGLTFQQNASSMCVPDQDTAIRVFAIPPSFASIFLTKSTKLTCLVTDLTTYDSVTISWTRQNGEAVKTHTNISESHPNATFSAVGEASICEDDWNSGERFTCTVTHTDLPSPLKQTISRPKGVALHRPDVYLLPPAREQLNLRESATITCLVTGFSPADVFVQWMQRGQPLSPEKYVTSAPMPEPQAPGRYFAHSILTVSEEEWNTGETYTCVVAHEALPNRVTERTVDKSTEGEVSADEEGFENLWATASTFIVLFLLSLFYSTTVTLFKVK

As to “DC-SIGN-HA (DC-SIGN fused to the HA epitope tag) (from UniProt Q9NNX6 1-404) (natural protein)”, the inhibition of the anti-IgM-induced iCa2+ flux in WSU-FSCCL cells after pre-exposure to DC-SIGN-HA in assay [1] came to 50%. Moreover, the stoichiometry N in assay [2] is more than 4.
“DC-SIGN-Fc (recombinant DC-SIGN fused to Fc) (from UniProt Q9NNX6 59-404) (Fc fusion)” yielded an inhibition of the anti-IgM-induced iCa2+ flux in WSU-FSCCL cells after pre-exposure to DC-SIGN-Fc in assay [1] of 80%. Moreover, the recovery of the anti-IgM-induced iCa2+ response in WSU-FSCCL cells after removal of pre-bound DC-SIGN-Fc with mannan (15 or 30 min at 37 °C) in assay [3] amounted to 50%.

B1: DC-SIGN-Fc (recombinant DC-SIGN fused to Fc), Q9NNX6 59-404 (Fc fusion)
chain: QVSKVPSSISQEQSRQDAIYQNLTQLKAAVGELSEKSKLQEIYQELTQLKAAVGELPEKSKLQEIYQELTRLKAAVGELPEKSKLQEIYQELTWLKAAVGELPEKSKMQEIYQELTRLKAAVGELPEKSKQQEIYQELTRLKAAVGELPEKSKQQEIYQELTRLKAAVGELPEKSKQQEIYQELTQLKAAVERLCHPCPWEWTFFQGNCYFMSNSQRNWHDSITACKEVGAQLVVIKSAEEQNFLQLQSSRSNRFTWMGLSDLNQEGTWQWVDGSPLLPSFKQYWNRGEPNNVGEEDCAEFSGNGWNDDKCNLAKFWICKKSAASCSRDEEQFLSPAPATPNPPPA
For the molecule B1, in assay [4], the stoichiometry N was more than 4.
